Reference: PMC11922060

B1: Sumo-tagged Drosophila Spd-2 SP2D (Spd-2 697-998), wild type [D. melanogaster] / itself (parent)
chain: LLPLKVTHTTLCWGSTKLRTDVRKSMQVKNTADKRLVIRLGIQGPGFQLVGTDSSTITLQAMECRSVVINFCPTVCGAAIGALSFYAPPGAHNSNQPGLEIPLYGYGGSASITINGLLKGPVGASFLTIGDVCELSAGPLSANLKFHNKGPLTAFVGISVDSTVLMKLRLSEAFEVRPSRLILPPNSERCVQILFRPNREDLKNILKKTAQVLTLANMRIFCGDEPNRQRMRSLVQRMSSRQREKLTSPMLDSIWGEFPDEQPVRNIGQLNEPPEFILDLVTVVRIIDVALTLNRDFDESSE

Variants of: B1
Assay: SEC-MALS
Settings: with itself; 200 µM protein; read off a plot

screen value [kDa]	Variant
46	chain 1 F126D
45	chain 1 P121D
